The experiment deals with Calcineurin (human PPP3CA / PPP3R1 heterodimer) (human, UniProt Q08209 1-521; P63098 1-170). As to the kind of experiment: SPR; apparent, steady-state fit. Background: Surface plasmon resonance follows binding to a sensor surface in real time, without labels.

For one molecule, Kd results are on record in publication doi:10.1101/2021.05.23.445342 (2021).

B1: Biotin-Cys-AKAP5c_(ILVF->SA) (domain or fragment)
chain: CVAEETKPKDTELSQESDFKENGITEEKSKSEESKRMEPIAIIITDTEISEFDVTKSKNVPKQASASAENEQVGVFANDNGFEDRTSEQYETASAETASSLVKNAAQSSAEQSANEMASDDNKINNLLQ
modifications: biotin (EZ-Link Maleimide-PEG2-Biotin) on the unique added N-terminal Cys
Regarding B1, the Kd worked out at 550 nM.
